# Measurements published in patent US20060240516A1 (ECOLE NORMALE SUPERIEURE DE LYON, published 2006).
# T1: LexA alone (bait control) (UniProt P0A7C2 1-202)
# T1 construct: also called pLex9
# T1 sequence: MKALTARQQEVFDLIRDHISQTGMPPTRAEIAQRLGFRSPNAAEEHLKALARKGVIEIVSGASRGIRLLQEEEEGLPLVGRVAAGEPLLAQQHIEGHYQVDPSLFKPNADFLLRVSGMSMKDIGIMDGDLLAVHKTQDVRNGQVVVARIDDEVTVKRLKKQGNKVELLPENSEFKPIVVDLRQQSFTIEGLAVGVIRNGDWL
# T2: GST-Rev fusion protein produced in bacteria (HIV-1, UniProt P04618 1-116)
# T2 construct: also called GXT-Rev
# T2 sequence: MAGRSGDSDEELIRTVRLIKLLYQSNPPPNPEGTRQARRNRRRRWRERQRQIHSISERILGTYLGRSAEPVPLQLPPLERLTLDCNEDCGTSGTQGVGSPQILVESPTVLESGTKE
# T3: Rev protein of HIV-1 (HIV-1, UniProt P04618 1-116)
# T3 construct: also called pSG-Rev
# T3 sequence: T2 sequence
# B1: SHPT-8 produced in bacteria (N-terminal FLAG epitope), purified (designed binder)
# chain: MSDQEAKPSTEDLGDKKEGEYIKLKVIGQDSSEIHFKVKMTTHLKKLKESYCQRQGVPMNSLRFLFEGQRIADNHTPKELGMEEEDVIEVYQEQTARPPNPKKEIELGGGGSFTMRGVDPGRKKRRQRRRG
# notes: also called pFLAG-SUMO-1-P 8
# Legend:
# [1] = target: T1, LexA alone (bait control); experiment: yeast two-hybrid, beta-galactosidase filter test; W = white after 6 h
# [2] = target: T1, LexA alone (bait control); experiment: two-hybrid test in HeLa cells, SEAP reporter
# [3] = target: T2, GST-Rev fusion protein produced in …; experiment: GST-Rev on glutathione-agarose column, elution with glutathione, immunoblot against FLAG
# [4] = target: T3, Rev protein of HIV-1; experiment: gel retardation of the Rev-RRE RNA complex
binder,measurement,setting,value
"GGGGSITRRIEMPGRDIPGVDGSILRGCWDPGRKKRRQRRRG (designed binder) [Yeast prey GAL4 activation domain-heptapeptide-Tat PTD, clone 9 (LexTat screening)]",binding result,[1],no binding
"ITRRIEMPGRDIPGVDGSILRGCWDPGRKKRRQRRRG (designed binder) [Mammalian prey FLAG-NLS-Vp16 activation domain-heptapeptide-Tat PTD, pSG-FNV-P-T9]",binding result,[2],no binding
B1,binding result,[3],no binding
same,binding result,[4],no binding
